Assays:
[1] = system: IgG3-Fc (Homo sapiens), P01860-1; assay: filter; settings: n (P) = NapdU; Zorbax, SB18, 37 C
[2] = system: IgM (Homo sapiens); assay: filter; settings: n (P) = NapdU; Zorbax, SB18, 37 C
[3] = system: IgG1-Fc (Homo sapiens), P01857-1; assay: filter; settings: n (P) = NapdU; Zorbax, SB18, 37 C
[4] = system: β-FGFR fusion (Fc fusion protein) (Homo sapiens); assay: filter; settings: n (P) = NapdU; Zorbax, SB18, 37 C
[5] = system: IgA (Homo sapiens); assay: filter; settings: n (P) = NapdU; Zorbax, SB18, 37 C
[6] = system: Immunoglobulin G (total IgG); assay: pulldown
[7] = system: IgG4-Kappa (Homo sapiens), P01861-1+P01834; assay: pulldown; settings: Protein L beads
Chain of IgG4-Kappa (Homo sapiens), P01861-1+P01834 (P01861 other isoform, or with tags, fused parts or gaps, chain 1 of 2, other chains not shown): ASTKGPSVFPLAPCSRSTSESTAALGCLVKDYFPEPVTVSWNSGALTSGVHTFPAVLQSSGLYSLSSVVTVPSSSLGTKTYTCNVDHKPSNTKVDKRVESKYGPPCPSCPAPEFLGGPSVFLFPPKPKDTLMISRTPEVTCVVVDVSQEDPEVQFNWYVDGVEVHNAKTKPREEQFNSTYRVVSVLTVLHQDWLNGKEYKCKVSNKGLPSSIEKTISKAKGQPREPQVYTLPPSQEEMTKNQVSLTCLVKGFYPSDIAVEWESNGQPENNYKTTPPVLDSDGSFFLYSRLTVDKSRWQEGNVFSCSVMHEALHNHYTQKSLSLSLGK

[8] = system: IgG3-Kappa (Homo sapiens), P01860-1+P01834; assay: pulldown; settings: Protein L beads
Chain of IgG3-Kappa (Homo sapiens), P01860-1+P01834 (P01860 other isoform, or with tags, fused parts or gaps, chain 1 of 2, other chains not shown): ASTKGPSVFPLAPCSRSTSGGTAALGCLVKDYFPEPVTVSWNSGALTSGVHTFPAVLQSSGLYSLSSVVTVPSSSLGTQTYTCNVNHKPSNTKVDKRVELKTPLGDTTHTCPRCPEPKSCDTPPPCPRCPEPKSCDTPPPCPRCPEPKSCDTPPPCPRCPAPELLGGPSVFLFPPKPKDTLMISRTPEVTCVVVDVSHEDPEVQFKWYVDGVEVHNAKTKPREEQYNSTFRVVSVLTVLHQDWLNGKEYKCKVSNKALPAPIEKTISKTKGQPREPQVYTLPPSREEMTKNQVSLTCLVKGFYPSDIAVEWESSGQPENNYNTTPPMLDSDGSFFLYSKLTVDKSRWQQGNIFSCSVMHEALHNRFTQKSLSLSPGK

[9] = system: IgG1-Kappa (Homo sapiens), P01857-1+P01834; assay: pulldown; settings: Protein L beads
[10] = system: Immunoglobulin G (total IgG) (Homo sapiens); assay: filter
[11] = system: IgG3-Fc (Homo sapiens), P01860-1; assay: pulldown; settings: P = NapdU; 37C, bead partitioning
[12] = system: IgM (Homo sapiens); assay: pulldown; settings: P = NapdU; Zorbax beads, SB18, 37C
[13] = system: IgG1-Fc (Homo sapiens), P01857-1; assay: pulldown; settings: P = NapdU; 37C, bead partitioning
[14] = system: β-FGFR fusion (Fc fusion protein) (Homo sapiens); assay: pulldown; settings: P = NapdU; 37C, bead partitioning
[15] = system: IgA (Homo sapiens); assay: pulldown; settings: P = NapdU; Zorbax beads, SB18, 37C
[16] = system: Total IgG (monkey) (monkey); assay: pulldown; settings: P = NapdU; Zorbax beads, SB18, 37C
[17] = system: IgD (Homo sapiens); assay: pulldown; settings: P = NapdU; Zorbax beads, SB18, 37C
[18] = system: IgG4-Fc (Homo sapiens), P01861-1; assay: pulldown; settings: P = NapdU; 37C, bead partitioning
Chain of IgG4-Fc (Homo sapiens), P01861-1 (P01861 other isoform, or with tags, fused parts or gaps): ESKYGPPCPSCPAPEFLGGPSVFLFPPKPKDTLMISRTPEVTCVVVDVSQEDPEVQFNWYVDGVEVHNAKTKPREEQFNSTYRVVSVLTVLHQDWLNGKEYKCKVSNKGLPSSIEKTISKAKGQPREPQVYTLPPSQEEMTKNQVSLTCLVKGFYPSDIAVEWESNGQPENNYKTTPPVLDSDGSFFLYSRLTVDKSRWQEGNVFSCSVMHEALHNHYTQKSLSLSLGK

[19] = n (P) = NapdU, SB18, 5 mM MgCl2, 37 C
[20] = n (P) = 2NapdU, SB18, 5 mM MgCl2, 37 C
[21] = n (P) = 2NapdU, considered no binding
[22] = n (P) = NapdU, considered no binding

Chain of IgG3-Fc (Homo sapiens), P01860-1 (P01860 other isoform, or with tags, fused parts or gaps): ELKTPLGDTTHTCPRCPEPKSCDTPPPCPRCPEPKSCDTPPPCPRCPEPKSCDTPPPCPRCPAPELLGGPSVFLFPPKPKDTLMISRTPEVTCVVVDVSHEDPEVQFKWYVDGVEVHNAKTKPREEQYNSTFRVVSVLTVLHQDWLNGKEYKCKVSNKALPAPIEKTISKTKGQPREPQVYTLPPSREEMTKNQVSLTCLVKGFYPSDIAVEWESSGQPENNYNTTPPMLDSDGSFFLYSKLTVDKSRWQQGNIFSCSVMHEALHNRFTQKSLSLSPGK

“CCTCCATACGGTACGATTTTCAGTTGGATCCAGTACCTGGCTGGAGAGAA [5406-56_3]” was tested, and the Kd [1] was 400 nM, the Kd [2] was 100 nM and the Kd [3] was 2 nM. The Kd [4] was 3 nM, the Kd [5] was 200 nM and the Kd ([6]; P = NapdU at all n positions, SB18, 5 mM MgCl2, 37C, bead partitioning, 4.54 nM in Table 2) was 3.13 nM. It also gave a Kd ([7]; n (P) = NapdU, SB17, 37 C) of 20 nM, a Kd ([8]; n (P) = NapdU, SB17, 37 C) of 80 nM and a Kd ([9]; n (P) = NapdU, SB17, 37 C) of 2 nM.

Sequence “ATGGCGAACTCCCTGAATGCTCTTGTCTTAA [14125-144_21]” has a Kd [10, 19] of 5.5 nM.

In the case of “CACATCCAAGACTGCGGTTACCTTGTAGGCGATTATGGGCAG [5334-8_7]”, the Kd [10, 20] is reported as 5.89 nM.

In the case of “AGACTGCGGTTACCTTGTAGGCGATTAT [5334-8_32]”, the Kd [10, 21] is reported as greater than 1000 nM.

In the case of “TACGGTACGATTTTCAGTTGGATCCAGTACCT [5406-56_33]”, the Kd [10, 19] is reported as 5.31 nM.

For “GGTACGATTTTCAGTTGGATCCAGTAC [5406-56_48]”, the Kd ([6]; P = NapdU, SB18, 37C, 6E-09 M in Table 7) was 5.81 nM, the Kd ([7]; P = NapdU, SB17, 37C) was 50 nM and the Kd [11] was 70 nM. For the same sequence, the Kd [12] was 70 nM, the Kd ([8]; P = NapdU, SB17, 37C) was 100 nM and the Kd [13] was 3 nM. It also gave a Kd [14] of 4 nM, a Kd [15] of 200 nM and a Kd [16] of 100 nM. It also gave a Kd [17] of 500 nM, a Kd [18] of 30 nM and a Kd ([9]; P = NapdU, SB17, 37C) of 2 nM.

In the case of “GACTGCGGTTACCTTGTAGGCGATTATGGGCAG [5334-8_21]”, the Kd [10, 20] is reported as 6.77 nM.

Sequence “ATGGCGAACTCCCTGAATGCTCTTGTCTT [14125-144_29]” has a Kd [10, 19] of 11.6 nM.

“ACTCCCTGAATGCTCTTGTCTTAAGTCCCCAACA [14125-144_11]” gave a Kd [10, 22] greater than 1000 nM.

Work on “CGGTACGATTTTCAGTTGGATCCAGTACCTG [5406-56_29]” yielded a Kd [10, 19] of 3.49 nM.

“GGTACGATTTTCAGTTGGATCCAGTACCTG [5406-56_30]” was tested, and the Kd [10, 19] was 3.22 nM.

In the case of “AGACTGCGGTTACCTTGTAGGCGATTATGGGCA [5334-8_28]”, the Kd [10, 20] is reported as 8.45 nM.

Sequence “ACGGTACGATTTTCAGTTGGATCCAGTACCTG [5406-56_28]” has a Kd [10, 19] of 3.64 nM.

Sequence “TACGGTACGATTTTCAGTTGGATCCAGTAC [5406-56_45]” has a Kd [10, 19] of 21.8 nM.

With “CTGCACGATGGCGAACTCCCTGAATGCTCTTGTCTTAAGTCCCCAACA [14125-144_4]” the Kd [10, 19] was 10.5 nM.

Work on “CGGCACTCCACATCCAAGACTGCGGTTACCTTGTAGGC [5334-8_17]” yielded a Kd [10, 21] greater than 1000 nM.

With “GTACGATTTTCAGTTGGATCCAGTACCTGG [5406-56_25]” the Kd ([10]; n (P) = NapdU, SB18, 5 mM MgCl2, 37 C, sequence identical to _21 to _25) was 21.9 nM.

In the case of “GATGGCGAACTCCCTGAATGCTCTTGTCTTA [14125-144_24]”, the Kd [10, 19] is reported as 9.89 nM.

Work on “GCCTGCACGATGGCGAACTCCCTGAATGCTCTTGTCTTAAGTCC [14125-144_14]” yielded a Kd [10, 19] of 15.8 nM.

Work on “ACGGTACGATTTTCAGTTGGATCCAGTACC [5406-56_40]” yielded a Kd [10, 19] of 4.32 nM.

“GGTACGATTTTCAGTTGGATCCAGTACC [5406-56_42]” gave a Kd [10, 19] of 4.97 nM.

Sequence “GATGGCGAACTCCCTGAATGCTCTTGTCTT [14125-144_28]” has a Kd [10, 19] of 17.2 nM.

Work on “GATGGCGAACTCCCTGAATGCTCTTGTCTTAA [14125-144_20]” yielded a Kd [10, 19] of 6.67 nM.

For “CAAGACTGCGGTTACCTTGTAGGCGATTATGGGCAG [5334-8_10]”, the Kd [10, 20] was 5.38 nM.

With “GCCTGCACGATGGCGAACTCCCTGAATGCTCTTGTCTTAAGTCCCCAA [14125-144_12]” the Kd [10, 19] was 17.2 nM.

Work on “ACGGTACGATTTTCAGTTGGATCCAGTACCT [5406-56_34]” yielded a Kd [10, 19] of 3.36 nM.

Sequence “CATCCAAGACTGCGGTTACCTTGTAGGCGATTATGGGCAG [5334-8_8]” has a Kd [10, 20] of 9.69 nM.

“CGGCACTCCACATCCAAGACTGCGGTTACCTTGTAGGCGA [5334-8_16]” was tested, and the Kd [10, 21] was greater than 1000 nM.

“GATGGCGAACTCCCTGAATGCTCTTGTCT [14125-144_32]” showed a Kd [10, 22] greater than 1000 nM.

With “GCCTGCACGATGGCGAACTCCCTGAATGCTCTTGTCTTAA [14125-144_16]” the Kd [10, 19] was 8.82 nM.

With “GTACGATTTTCAGTTGGATCCAGTACC [5406-56_43]” the Kd [10, 19] was 11 nM.

“ACTCCACATCCAAGACTGCGGTTACCTTGTAGGCGATTATGGGCAG [5334-8_5]” gave a Kd [10, 20] of 5.92 nM.

“ACGGTACGATTTTCAGTTGGATCCAGTAC [5406-56_46]” gave a Kd [10, 19] of 8.14 nM.

“GATGGCGAACTCCCTGAATGCTCTTGTC [14125-144_36]” showed a Kd [10, 22] greater than 1000 nM.
